Reference: the nanobody polyreactivity screen of Harvey et al. (2022)

Assay: yeast display, Sf9 membrane polyspecificity reagent, FACS + sequencing; frameworks hold sequencing errors
In short: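 In a synthetic yeast display library (Saccharomyces cerevisiae BJ5465), nanobody expression was induced with galactose for 36–48 hours. FACS gates were set low and high (top ~1%) using anti-HA fluorescence for expression and streptavidin fluorescence for binding of the Sf9 membrane reagent. Each polyreactivity label is drawn from the gate of origin.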

| Sequence | polyreactivity (PSR sort gate) |
| --- | --- |
| QVQLVESGGGLVQAGGSLRLSCAASGRTFRKYTMGWYRQAPGKERELVAAITLSGGSTYYADSVKGRFTISRDNAKNTVYLQMNSLKPEDTAVYYCAARYNRGAFDYWGQGTQVTVSS | high polyreactivity |
| QVQLVESGGGLVQAGGSLRLSCAASGRTFRLFAMGWYRQAPGKERELVAAIRSGGNTNYADSVKGRFTISRDNAKNTVYLQMNSLKPEDTAVYYCAATTYVVASRYVGSLGDDYWGHGTQVTVSS | high polyreactivity |
| QVQLVESGGGLVQAGGSLRLSCAASGRTFRLYAMGWHRQAPGKERELVAAITRGGRTNYADSVKGRFTISRDNAKNTVYLQMNSLKPEDTAVYYCAARYVERHTDYYYWGQGTQVTVSS | low polyreactivity |
| QVQLVESGGGLVQAGGSLRLSCAASGRTFRLYAMGWYRQAHGKERELVARISRGGSTYYADSVKGRFTISRDNAKNTVYLQMNSLKPEDTAVYYCAAVAYALGFASKEDYWGQGTQVTVSS | high polyreactivity |
| QVQLVESGGGLVQAGGSLRLSCAASGRTFRLYAMGWYRQAPGKERALVAAITGVGSTNYADSVKGRFTISRDNAKNTVYLQMNSLKPEDTAVYYCAAYYWSQVLIQGYYSWGQGTQVTVSS | high polyreactivity |
| QVQLVESGGGLVQAGGSLRLSCAASGRTFRLYAMGWYRQAPGKERELVAAITRGGRTNYADSVKGRFTISRDNAKNTVYLQMNSLKPEDPAVYYCAARYVERHTDYYYWGQGTQVTVSS | low polyreactivity |
| QVQLVESGGGLVQAGGSLRLSCAASGRTFRNNAMGWYRQAPGKERELVASISKSGGRTYYADSVKGRFTISRDNAKNTVYLQMNSLKPEDTAVYYCAAYRIHVYPAGLSWQYYYELDYWGQGTQVTVSS | high polyreactivity |
| QVQLVESGGGLVQAGGSLRLSCAASGRTFRNYAMGWYRQAPGKERELVAGITYSGGSTFYADSVKGRFTISRDNAKNTVYLQMNSLKPEDTAVYYCAAVYVQYYWLGRSRGLDYWGQGTQVTVSS | high polyreactivity |
| QVQLVESGGGLVQAGGSLRLSCAASGRTFRPNAMGWYRQAPGKERELVASITRRGGTTYYADSVKGRFTNSRDNAKNTVYLQMNSLKPEDTAFYYCIGPRGYSSTRNGYWGQGTQVTVSS | high polyreactivity |
| QVQLVESGGGLVQAGGSLRLSCAASGRTFRPYAMGWYIQAPGKERELVAAIDSSGTSTYYADSVKGRFTISRDNAKNTVYLQMNSLKPEDTAVYYCAKAWPDHWYSRYDYWGQGTQVTVSS | low polyreactivity |
| QVQLVESGGGLVQAGGSLRLSCAASGRTFRPYAMGWYRQAPGKERELVAAIDSSGTSTYYADSVKGRFTISRDNAKNTVYLQMNCLKPEDTAVYYCNTSLKRRRLRFNYWGQGTQVTVSS | low polyreactivity |
| QVQLVESGGGLVQAGGSLRLSCAASGRTFRPYAMGWYRQAPGTERELVARITSGGGRTYYADSVKGRFTISRDNAKNTVYLQMNSLKPEDNAVYYCNKAIYSLYRDGYTNFDYWGQGTQVTVSS | high polyreactivity |
| QVQLVESGGGLVQAGGSLRLSCAASGRTFRPYPMGWYRQAPGKERELVAAITRSGGSTYYADSVKGRFTISRDNAKNTVYLQMNSLKPEDTAVYYCAAYNTYSDTYDYWGQGTQVTVSS | low polyreactivity |
| QVQLVESGGGLVQAGGSLRLSCAASGRTFRRNAMGWYRQAPGKERELVADISNGDSTKYADSVKGRFTISRDNAKNTVYLQMNSLKPEDTAVYYCNAQRYRVVVYNSHGWQTRNYWGQGTQVTVSS | low polyreactivity |
| QVQLVESGGGLVQAGGSLRLSCAASGRTFRRSAMGWYRQAPGKEREFVAAISVSGDSTYADSVKGRFTISRDNAKNTVYLQMNSLKPEDTAVYYCAAVYWYCGWKVDYWGQGTQVTLSS | low polyreactivity |
| QVQLVESGGGLVQAGGSLRLSCAASGRTFRRYAMGWYRQAPGKERELVAAISSSSGTTYYADSVKGRFTISRDNEKNTDYLQMNSLKPEDTAVYYCAAYSRYTTRQYDYWGQGTQVTVSS | high polyreactivity |
| QVQLVESGGGLVQAGGSLRLSCAASGRTFRRYAMGWYRQAPGKERELVAAITRGGSTNYADSVKGRFTISRDNAKDTVYLQMNSLKPEDTAVYYCAKDPLATFYGYWGQGTQVTVSS | high polyreactivity |
